The text below walks through data of patent US20260166084A1 (published 2026).

In assay [1] the target is complex formed between CRBN/DDB1 and iberdomide (UniProt Q96SW2 1-442; Q16531 2-1140). The experiment in a line: TR-FRET displacement; iberdomide. A general note: TR-FRET usually uses a lanthanide donor and a delayed reading to cut background.
Assay [2] deals with complex formed between CRBN/DDB1 and lenalidomide (UniProt Q96SW2 1-442; Q16531 2-1140). As to the kind of experiment: TR-FRET displacement; lenalidomide.
Sequence of complex formed between CRBN/DDB1 and lenalidomide (Q96SW2 whole entry, chain 1 of 2): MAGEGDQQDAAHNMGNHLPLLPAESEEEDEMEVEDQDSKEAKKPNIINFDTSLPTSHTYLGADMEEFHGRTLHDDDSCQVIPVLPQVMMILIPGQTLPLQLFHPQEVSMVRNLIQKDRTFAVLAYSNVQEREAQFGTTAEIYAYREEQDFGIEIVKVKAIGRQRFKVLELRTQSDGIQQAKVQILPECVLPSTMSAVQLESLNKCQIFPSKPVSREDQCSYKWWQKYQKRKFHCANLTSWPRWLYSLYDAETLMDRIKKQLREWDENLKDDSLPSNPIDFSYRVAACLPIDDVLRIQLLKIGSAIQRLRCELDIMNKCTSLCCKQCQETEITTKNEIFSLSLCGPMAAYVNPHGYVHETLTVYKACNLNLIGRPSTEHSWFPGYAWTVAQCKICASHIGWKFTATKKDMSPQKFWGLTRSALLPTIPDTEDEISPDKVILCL
Sequence of complex formed between CRBN/DDB1 and lenalidomide (Q16531 2-1140, chain 2 of 2): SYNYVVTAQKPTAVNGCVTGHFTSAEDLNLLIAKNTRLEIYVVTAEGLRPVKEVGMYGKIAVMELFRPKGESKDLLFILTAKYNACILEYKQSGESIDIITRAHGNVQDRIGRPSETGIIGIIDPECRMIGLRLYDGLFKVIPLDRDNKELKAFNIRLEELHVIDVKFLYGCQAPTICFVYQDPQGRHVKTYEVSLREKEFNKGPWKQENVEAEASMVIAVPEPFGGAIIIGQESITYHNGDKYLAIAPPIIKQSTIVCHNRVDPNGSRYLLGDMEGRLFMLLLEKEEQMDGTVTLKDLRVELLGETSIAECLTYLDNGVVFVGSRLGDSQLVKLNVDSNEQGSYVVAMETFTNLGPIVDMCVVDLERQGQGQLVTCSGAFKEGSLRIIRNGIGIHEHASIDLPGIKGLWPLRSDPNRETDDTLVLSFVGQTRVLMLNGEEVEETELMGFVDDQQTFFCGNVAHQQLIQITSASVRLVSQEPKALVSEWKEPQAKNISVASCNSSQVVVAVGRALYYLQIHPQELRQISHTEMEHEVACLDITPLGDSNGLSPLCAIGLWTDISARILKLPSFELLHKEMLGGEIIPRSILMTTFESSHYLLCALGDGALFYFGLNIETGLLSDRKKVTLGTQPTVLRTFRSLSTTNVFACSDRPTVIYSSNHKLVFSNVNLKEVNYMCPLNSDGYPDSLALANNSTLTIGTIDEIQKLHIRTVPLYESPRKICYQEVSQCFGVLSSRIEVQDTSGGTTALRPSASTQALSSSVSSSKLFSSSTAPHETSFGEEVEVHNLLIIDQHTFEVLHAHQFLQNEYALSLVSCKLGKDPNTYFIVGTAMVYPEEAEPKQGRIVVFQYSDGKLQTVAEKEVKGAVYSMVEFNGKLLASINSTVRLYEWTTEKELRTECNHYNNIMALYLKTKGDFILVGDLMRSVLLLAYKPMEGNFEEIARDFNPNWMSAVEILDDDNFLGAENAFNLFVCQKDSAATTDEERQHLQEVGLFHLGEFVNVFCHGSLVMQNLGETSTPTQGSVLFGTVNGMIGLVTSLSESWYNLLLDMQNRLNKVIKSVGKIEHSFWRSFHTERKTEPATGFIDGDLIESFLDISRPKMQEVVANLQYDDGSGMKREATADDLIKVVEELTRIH
Assay [3] has as its target complex formed between CRBN/DDB1 and pomalidomide (UniProt Q96SW2 1-442; Q16531 2-1140). As to the kind of experiment: TR-FRET displacement; pomalidomide.

Sequence of complex formed between CRBN/DDB1 and pomalidomide (Q96SW2 whole entry, chain 1 of 2): as the sequence (Q96SW2 whole entry, chain 1 of 2) above
Sequence of complex formed between CRBN/DDB1 and pomalidomide (Q16531 2-1140, chain 2 of 2): as the sequence (Q16531 2-1140, chain 2 of 2) above
Sequence of complex formed between CRBN/DDB1 and iberdomide (Q96SW2 whole entry, chain 1 of 2): as the sequence (Q96SW2 whole entry, chain 1 of 2) above
Sequence of complex formed between CRBN/DDB1 and iberdomide (Q16531 2-1140, chain 2 of 2): as the sequence (Q16531 2-1140, chain 2 of 2) above

B1: iTAG1 (DCD23) (designed binder)
chain: PNVLMVHKRSHTGERPLQCEICGFTCRQKGNLLRHIKLHSGEKPFKCHLCNYACRRRDAL
One may read the IC50 as the concentration needed to halve the response being measured. The low end stands for greater potency, the high end for weaker potency. As to B1, the IC50 was 0.0364 µM in assay [1], 0.0787 µM in assay [2] and 0.0498 µM in assay [3].

B2: iTAG2 (DCD23mut) (designed binder)
chain: PNVLMVHNESHTGEIPLQCEICGFTCEQAGNLLNHIELHSGEIPFKCHLCNYACRRRDAL
With B2, the IC50 worked out at 0.556 µM in assay [1], 0.86 µM in assay [2] and 0.834 µM in assay [3].
